From the nanobody polyreactivity screen of Harvey et al. (2022)

assay: yeast display, Sf9 membrane polyspecificity reagent, FACS + sequencing; frameworks hold sequencing errors
In short: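 After 36–48 hours of galactose induction, yeast (Saccharomyces cerevisiae BJ5465) displaying a synthetic nanobody library were stained at 4 °C for 1 hour with 10% biotinylated, detergent-solubilized Sf9 membrane reagent. Streptavidin microbeads enriched the stained cells before FACS sorting into low and high (top ~1%) gates on anti-HA and streptavidin fluorescence. Each clone's polyreactivity label reflects its gate of origin.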

Sequence | polyreactivity (PSR sort gate)
QVQHEESGGGLVQAGGSLRLSCAASGFTFGTNAMGWSRQAPGKERELVAAISTRGGSTYYADSVKGRFTISRDNAKNTVYLQMNSLKPEDTAVYYCAAYWGRTRYYGYDYYYWGQGTQVTVSS | high polyreactivity
QVQHVDSGGGLVQAGGSLRLSCAASGIYVVYAMGWYRQAPGKERELVAAISSGVSTTYADSVKGRFTISRDNAKNTVYLQMNSLKPEDTAVYYCNTLWGHHYIVPYRTREFYYWGQGTQVTVSS | low polyreactivity
QVQHVDSGGGLVQAGGSLRLSCAASGSTFFTYAMGWYRQEPGKERELVAAISQSSVRTHYADSVKGRFTISRDNAKNTVYLQMNSLKPEDTAVYYCAARVYGRQYPGAPYYYWGQGTQVTVSS | high polyreactivity
QVQHVDSGGGLVQAGGSLRLSFAASGFRFGINAMGWYRPAPGKERELVAAISKRTGSTYYADSVKGRFTSSRDNAKNTVYLQMNSLKPEDTAVYYCNKRVFPGYRLGGFWGQGTQVTVSS | high polyreactivity
QVQHVEKGGALVQAGGSLRLSCAASGFTVDWYAMGWYIQAPGKERELVAAITTSGGTKYYADSVKGRFTISRDNAKNTVYLLMNCLNPEDTAVYYCAAEGTWSRNYDYWGQGTQVTVSS | low polyreactivity
QVQHVESAGGLVQAGGSLRLICAASGSIFFHYGMGWYRQAPGKERELVADIRSGGSTYYADSVKGRFTSSRDNAKNTVYLQMNSLKPDDSAVYYCAAVLALFGVTHVDYWGQGTQVSVSS | low polyreactivity
QVQHVESAGGLVQAGGSLRLSCSASGSIFYFYAMGWSRQAPGKERELVATITSSGSTNYADSVKGRFTISRDNAKNTVYLQMNSLKPEDTAVYYCNVDVISLKPYVSSYFAIKYDYWGQGTQVTVSS | low polyreactivity
QVQHVESAGGLVQAGGSLSLSCAASGSIFNLYAMGWYRQAPGKERELVAAIRWDGGSTYNADSVKGRFTISRDTAKNTVYLQMNSLKPEDTAVYYCAAETVYFRLLILDYWGQGTQVTVSS | high polyreactivity
QVQHVESGGALVQAGGSLRLSCAASARTFPGYTMGWYRQAPGKETELVAAITRVGTTYYADSVKGRFTISRDNAKNTVYLQMNSLKPEDTAVYYCAAVISQGFIRYYYWGQGTQVTVSS | high polyreactivity
QVQHVESGGCLVQAGGSLRLSCASSGSIFDRNAMGWYRQAPGKERELVAAISSRGGSTYYADSVKGRFTISRDNAKNTVYLQMNSLKPEDTAVYYSAKRRDLYGGYRPYYYWGQGTQVTVSS | high polyreactivity
QVQHVESGGGIDQAGGSLRLSCAASGSTSVQYAMGWYRQATGKERELVAAISLSVGSTYYADSVKGRFTISRDNAKITVYLQMNCLKPEDTAVYYCASGYPPEDPEDYWGQGTQVTVSS | low polyreactivity
QVQHVESGGGIVHAGGSLRLSCAASGSIFTRYTMGWDRMATGKERELVAVISDSSGRTYYADSVKGRFTISRDNAKNTFYLQLNSLKPADTAVYYCAAEYSDIYEYWGQGTQVTVSS | low polyreactivity
QVQHVESGGGIVQAGGSLRLSCAASGIIFTSNAMGWYRQAPGKERELVAAINWSGARTYYADSVKGRFTISRDNAKNTVYLQMNSLKPEDTAVYYCNVVTRAATYPDYSYDYWGQGTQVTVSS | high polyreactivity
QVQHVESGGGIVQAGGSLRLSCAASGRTYAINAMGSYRQAPGKEMELLASITTRDSSTYYADSVKGRFTISRDNAKNTVYLQMKSLIPDDTAVYYCAKVKLVTYLYRLFVYGSYYWGLGTQVTVSS | low polyreactivity
QVQHVESGGGLLQAGGSLRLSCAASGITFWPYAMGWYRQAPGKERELVAAIRASVGRTYYADSVKGRFTISREYAKNTVYLQMNSLIPVDTAVYYCNAYGRYGKFRVEYDYWGQGTQVTVSS | low polyreactivity
QVQHVESGGGLVHAGGRLRLRCAASGSTFVTNVMGWYSQEPGKEMELVAAISYSGGNTYYEDSEKGRFTISRDNAQNSVYLQMNSLKQEDTAVYYCAAAYKPFKKMGYWGQGTQVTVSS | high polyreactivity
QVQHVESGGGLVQAAGSLRLSCAASGRIFYRNAMGWSRQAPGKERELVAAISKSGGSTYYSDSVKGRFTISRDNAKNTVYLQMNSLKPEDTAVYYCAAGTRLSDGYYWGQGTQVTVSS | high polyreactivity
QVQHVESGGGLVQAAGSLRLSCAASGTTLSSYAMGWSRQAPGKVRELVAAINSSGGRTYYADSVKGRFTISRDNAKNTVYLQMNSLKPDDTAVYYCAATRGRYREYEDYWGQGTQVTVSS | high polyreactivity
QVQHVESGGGLVQAGGGLRLSCAASGRIFRQNTMGWYRHAAGKEWELVASISLSAGSTFYADSVKGRFTISRDNAKNTVYLQMNSLKPEDTAVYYCAAEKPVHYVRGVHYDYWGQGTQVTVSS | low polyreactivity
QVQHVESGGGLVQAGGILRFSSPASGGTVNINAMGWYIQAPGKERELFADISYSDGTTDYADSVKGRFTISRDNAKNTVYLQMNSLKPEDTAVYYCAAYYYYYSGFGQRSYSWGQGTNVTVSS | low polyreactivity

Sequence | polyreactivity (PSR sort gate)
QVQHVESGGGLVQAGGILRLICDASGGIFAANAMGWYRPAPGQERELVAAITSVGSTYADSVKGRFTISRDNAKNTVYLQMNSLKPEDTAVYYCAADTESVIVWYEDDYWGQGTQVTVSS | low polyreactivity
QVQHVESGGGLVQAGGRLRLTCPASGSTVGYYAMGWYRQAPGKEREFVATITFGGSTHYADSVKGRFTISRDNAKYTVYLQMNSLKPEDTAFYYCAKRYYTNRHSRAFGYWGQGTQVTVSS | high polyreactivity
QVQHVESGGGLVQAGGSLLLSCAASGFIFKSNAMGWYRQAPGKERELVAAITSSGGRTYYADSVKGRFTISRDNAKNTVYLQMNSLKPEDTAVYYCAADIALGRYYYWGQGTQVTVSS | high polyreactivity
QVQHVESGGGLVQAGGSLLLSCAASGSTFARYAMGWYRQPPGKERELVAAISRSGSNTYYADSVKGRFTISRDNAKNTVYLQMNSLKPEDTAVYYCNRTHRQSFSKLDYWGQGTQVTVSS | high polyreactivity
QVQHVESGGGLVQAGGSLRISCAPSGRTFFPNAMGCYRQAPGKEREFVAAITKTDDSTYYADSVKGRFTISRDNAKNTVYLPMNSLKPEDTAVYYCNAGDTQIRFYYWGQGTQETVSS | low polyreactivity
QVQHVESGGGLVQAGGSLRLICAASGITFHYYAMGWYRQAPGKDRELVAAISSGGRTNYADSVKGRFTISRDNAKNTVYLQMNCLKPEDTAVYYCAGVYFGGYTATVYYWGQGTQVTVSS | high polyreactivity
QVQHVESGGGLVQAGGSLRLICAASGRIFTRYAMGWYRQAPGKERELVAAISASGGSTHYADSVKGRFTISRDNAKNTVYLQMNSLKPEDTAVYYCADAYVSRNSGFGYWGQGTQVTVSS | low polyreactivity
QVQHVESGGGLVQAGGSLRLSCAACGRTFTPYAMGWYLQEPGKDREFVAAIDTSGGSTYADSVNGRFTISRDNAKYTVYLQKNSLKPEDTAVYYCGTRGFYSWDYWYLWEYDYWGQGTQVTVSS | low polyreactivity
QVQHVESGGGLVQAGGSLRLSCAASAFTFRFYAMGWYRQAPAKEMELVAAISWSGTSTYYADSVKGRFTLSRDNAKNTVYLQMNSLIQDDTAVYYCATQYRRRQRKYDYWGQGTQVTVSS | high polyreactivity
QVQHVESGGGLVQAGGSLRLSCAASARTFHGYPLGVYRQAAGKETELVARINWSDGRTYYADSVKGRFTMSRDNAKNTVYFQMNSLKPEDTAFYYCAAEKTVSYAPAWYYYWGQGTQVTVSS | low polyreactivity
QVQHVESGGGLVQAGGSLRLSCAASASTFAWYPMGWYRQAPGKERELVAAITRDGSTYYADSVKGRFTISRDNAKNTVYLQMNSLKPEDTAVYYCAADLSYWRGGHSRNYWGQGTQVTVSS | low polyreactivity
QVQHVESGGGLVQAGGSLRLSCAASGAIFWGYAMGWYRQAPGKERELVATISWTGGSTYYADSVKGRFTISRDNAKNTVYLQMNSLKPEDTAVYYCAKVIIHYYYLVNLVDVDYWGQGTQVTVSS | low polyreactivity
QVQHVESGGGLVQAGGSLRLSCAASGFIFSSYAIGWYRQAPGKEREFVASIRRRGGSTYYAYSVKGRFTISRDNAKNTVILQMNRLIPEDTAVYYCAREVYRHFAPVGYDYWGQGTQVTVSS | high polyreactivity
QVQHVESGGGLVQAGGSLRLSCAASGFIFSTNAMGRYRQAPGKERELVATIRSGGSTNYADSVKGRFTISRDNAKYTVYLQMNSLKPEDTAVYYCNVDDTSWTTSGGRFGQVEYDYWGQGTQVTVSS | low polyreactivity
QVQHVESGGGLVQAGGSLRLSCAASGFIFWDYAMGWYRQAPGKERELVAAISDSGGDTYYADSVKGRFTISRDNAKNTVYLQMNSLIPEDTAVYYCAAETYCGGYPVTYDYWGQGTQVTVSS | low polyreactivity
QVQHVESGGGLVQAGGSLRLSCAASGFIFYRYTMVWYRQAHGKERELVAAISQSGGNTYYADSVKGRFTISRDNAKNTVYLLMNSLKPEDTAVYYCNAVYYYYAGNYWGQGTQVTVSS | high polyreactivity
QVQHVESGGGLVQAGGSLRLSCAASGFMFYSYAMGWYRQPPGKEREFVAAITEDGDSSYYADSVKGRFTISRDNAKKTVYLQMNSLKPEDTAVYYCNTDLTFNGTSGDYDYWGQGTQVTVSS | low polyreactivity
QVQHVESGGGLVQAGGSLRLSCAASGFTFAIYGKGWYRQAPGKERELVAAINWSGGRTYYADSVKGRFTISRDNAKNTVYVQMQSLKPDDTAVYYCAARYVSRWYDYEFWGQGTQVTVSS | high polyreactivity
QVQHVESGGGLVQAGGSLRLSCAASGFTFAWNAMGWYRQAPGKERELVAAITWGDNSTYYADSVKGRFTISRDNAKNTVYLQMNSLKPEDTAVYYCAARVTHWYYLFGYDYWGQATQVTVSS | low polyreactivity
QVQHVESGGGLVQAGGSLRLSCAASGFTFFGDYAMGWYRQAPGKERELVAGISVSGGSTYYADSVKGRFTISRDNAKNSVYLQMNSLKPEDTGVYYCAARYSLKGGRYVYWGQGTQVTVSS | high polyreactivity
